From publication PMC12312386, “Multiple transactivation domains of EZH2 bind to the TAZ2 domain of p300 and stimulate the acetyltransferase function of p300” (Biochemical Journal, 2025)

Columns and labels:
GST-p300TAZ2 = assay: Mass photometry (MP) of GST-p300TAZ2 with EZH2TAD constructs; assay type: binding, human; details: 20 nM GST-p300TAZ2 alone
Description: [37]. […] After induction with isopropyl b-D-1-thiogalactopyranoside (IPTG), harvesting, and lysis in buffer [50 mM Tris pH 7.0, 1 M NaCl, 5 mM dithiothreitol (DTT), 1 mM phenylmethanesulfonylfluoride (PMSF) and DNase] by sonication, the proteins were purified on glutathione agarose beads (Pierce) and eluted with buffer containing reduced L-glutathione (Fisher). The GST tag was either cleaved with TEV protease overnight at 22°C or kept intact during subsequent purification steps. […] The EZH2TAD1 ([…]) construct was generated by deletion using Q5 Hot Start High-Fidelity kit (NEB) and confirmed by DNA sequencing. Both constructs were expressed in E. coli Rosetta-2 (DE3) pLysS cells grown in LB media and induced at an OD600 of 0.6-0.8 with 1 mM IPTG for 16 h at 16°C. Cells were harvested by centrifugation, suspended in buffer (50 mM Tris pH 7.5, 500 mM NaCl, 1% CHAPS, 2 mM DTT, 1 mM PMSF, Roche cOmplete Protease Inhibitor Cocktail, and DNase), and lysed by sonication. […] When necessary, EZH2TAD constructs were further purified using a Superdex 200 Increase 10/300 GL column (Cytiva) with monitoring at 205 and 280 nm. […] To overcome the minimum size limit, a GST-fusion construct was used for one of the components in each sample. […] Ten microliter of each sample was loaded into the sample wells of the silicon cassettes assembled onto MassGlass UC coverslips (Refeyn, Ltd.). […]

[1] = tested on: FLAG-HA-tagged p300 catalytic core (aa 1035–1830 of p300); assay: Histone acetyltransferase (HAT) assay, Western blot, recombinant nucleosome substrate; assay type: biochemical; details: 1 μg p300 core, 2.5, 5 or 10 μg GST-tagged TADs, 1 μg nucleosome, 15 min
Description: Histone acetyltransferase assay
For HAT assays, FLAG-HA-tagged p300 core (aa 1035–1830 of p300) in a pCDH vector was expressed in 293 T cells for two days. Cells were lysed in lysis buffer (50 mM Tris-HCl pH 7.5, 300 mM NaCl, 1.5 mM MgCl2, 1 mM EDTA, 1% Triton100, 10% glycerol, 1 mM PMSF, and protease inhibitors) and sonicated. Cell lysates were incubated with anti-Flag M2 beads (Sigma) at 4° for 4 h. The beads were then washed three times with buffer (50 mM Tris-HCl pH 7.5, 500 mM NaCl, 1.5 mM MgCl2, 0.2 mM EDTA, 0.1% NP40, 10% glycerol, and 1 mM PMSF), and the protein was eluted with elution buffer (50 mM Tris-HCl pH 7.5, 300 mM NaCl, 1 mM DTT, 10% glycerol, and 0.4 mg/ml Flag peptide).
GST-tagged EZH2TADs (aa 119–267), EZH1TADs (aa 120–280), F176A/F237A EZH1TADs (EZH1 2A), and F146A/F176A/F237A/Y257A EZH1TADs (EZH1 4A) constructs in the pGEX-6p-1 vector were transformed into RosettaTM2 (DE3) pLysS competent cells (Novagen). Protein production was induced by incubating with 0.4 mM IPTG at 16°C for 20 h in LB. Cell pellets were resuspended in lysis buffer (50 mM Tris-HCl pH 8.0, 300 mM NaCl, 1 mM PMSF, and 1 × cOmpleteTM EDTA-free Protease Inhibitor Cocktail) and lysed by sonication. Lysates were centrifuged at 17,000 g for 15 min, and supernatants were incubated with Glutathione Sepharose® 4B beads (Sigma) at 4°C for 2 h. Beads were washed with lysis buffer twice, and proteins were eluted with elution buffer (50 mM Tris-HCl pH 8.0, 150 mM NaCl, 10% glycerol, and 15 mg/ml GSH).
Purified FLAG-HA-tagged p300 catalytic core fragment (1 μg) was incubated with increasing amounts of GST-tagged EZH2TADs and GST-tagged EZH1TADs (2.5, 5, or 10 μg) and the nucleosome (1 μg) in HAT reaction buffer (50 mM Tris-HCl pH 8.0, 100 mM NaCl, 10% glycerol, 1 mM DTT, […], and 1× cOmplete EDTA-free Protease Inhibitor Cocktail) at 30°C for 15 min. Reactions were stopped by boiling at 95°C for 5 min in 2×SDS loading buffer, and samples were analyzed by SDS-PAGE and Western blot. […]

B1: GST-p300TAZ2: GST-tagged human p300 TAZ2 domain, aa 1722–1812 (protein)
chain: AWTQSPGDSRRLSIQRCIQSLVHACQCRNANCSLPSCQKMKRVVQHTKGCKRKTNGGCPICKQLIALCCYHAKHCQENKCPVPFCLNIKQK
modifications: left off: GST, end not stated, kept
oligomeric state in the apo-state (GST-p300TAZ2): exists in a dimeric form | MP peak, apo GST-p300TAZ2 (GST-p300TAZ2; Figure 5a, room temperature, 50 mM Tris pH 7.5, 150 mM NaCl, 5 mM DTT): ~ 80 kDa

B2: EZH1 WT: GST-tagged EZH1TAD1-TAD2-TAD3 (aa 120–280) (protein)
chain: NFMVEDETVLCNIPYMGDEVKEEDETFIEELINNYDGKVHGEEEMIPGSVLISDAVFLELVDALNQYSDEEEEGHNDTSDGKQDDSKEDLPVTRKRKRHAIEGNKKSSKKQFPNDMIFSAIASMFPENGVPDDMKERYRELTEMSDPNALPPQCTPNIDGP
modifications: left off: GST, end not stated, kept
H3K18 acetylation by p300 core ([1]; 100 mM acetyl-CoA, 50 mM Tris-HCl pH 8.0, 30°C, H3K18ac Western blot): dose-dependent increase in H3K18 and H3K27 acetylation | H3K27 acetylation by p300 core ([1]; 100 mM acetyl-CoA, 50 mM Tris-HCl pH 8.0, 30°C, H3K27ac Western blot): dose-dependent increase in H3K18 and H3K27 acetylation

B3: EZH1 2A: GST-tagged F176A/F237A mutant of EZH1TAD1-TAD2-TAD3 (aa 120–280) (protein)
chain: NFMVEDETVLCNIPYMGDEVKEEDETFIEELINNYDGKVHGEEEMIPGSVLISDAVALELVDALNQYSDEEEEGHNDTSDGKQDDSKEDLPVTRKRKRHAIEGNKKSSKKQFPNDMIASAIASMFPENGVPDDMKERYRELTEMSDPNALPPQCTPNIDGP
modifications: left off: GST, end not stated, kept
stimulation of p300 enzymatic activity ([1]; mutants compared with EZH1 WT, 30°C, H3K18ac and H3K27ac Western blot): stimulation of the p300 enzymatic activity was decreased
